Experimental data as given in ChEMBL document CHEMBL3425448, “Synthesis of hydrolysis-resistant pyridoxal 5'-phosphate analogs and their biochemical and X-ray crystallographic characterization with the pyridoxal phosphatase chronophin” (Bioorg Med Chem, 2015).

Key:
[1] = compound: Cc1ncc(/C=C/P(=O)(O)O)c(C=O)c1O; assay: (§1) Inhibition of recombinant mouse brain PDXP-mediated pyridoxal 5' phosphate hydrolysis expressed in Escherichia coli BL21 (DE3) cells assessed as enzyme Km at 0.1 mM preincubated for 4 mins followed by substrate addition measured after 2 mins
[2] = compound: Cc1ncc(CCP(=O)(O)O)c(CO)c1O; assay: as §1
[3] = compound: Cc1ncc(/C=C/P(=O)(O)O)c(CO)c1O; assay: as §1
[4] = compound: Cc1ncc(CCP(=O)(O)O)c(C=O)c1O; assay: as §1
[5] = compound: Cc1ncc(/C=C/P(=O)(O)O)c(C=O)c1O; assay: (§2) Inhibition of recombinant mouse brain PDXP-mediated pyridoxal 5' phosphate hydrolysis expressed in Escherichia coli BL21 (DE3) cells assessed as ratio of enzyme Kcat/Km at 0.5 mM preincubated for 4 mins followed by substrate addition measured after 2 mins
[6] = compound: Cc1ncc(CCP(=O)(O)O)c(CO)c1O; assay: as §2
[7] = compound: Cc1ncc(/C=C/P(=O)(O)O)c(CO)c1O; assay: as §2
[8] = compound: Cc1ncc(CCP(=O)(O)O)c(C=O)c1O; assay: as §2
[9] = compound: Cc1ncc(/C=C/P(=O)(O)O)c(C=O)c1O; assay: (§3) Inhibition of recombinant mouse brain PDXP-mediated pyridoxal 5' phosphate hydrolysis expressed in Escherichia coli BL21 (DE3) cells assessed as enzyme Kcat at 1 mM preincubated for 4 mins followed by substrate addition measured after 2 mins
[10] = compound: Cc1ncc(CCP(=O)(O)O)c(CO)c1O; assay: as §3
[11] = compound: Cc1ncc(/C=C/P(=O)(O)O)c(CO)c1O; assay: as §3
[12] = compound: Cc1ncc(CCP(=O)(O)O)c(C=O)c1O; assay: as §3
[13] = compound: Cc1ncc(/C=C/P(=O)(O)O)c(C=O)c1O; assay: (§4) Inhibition of recombinant mouse brain PDXP-mediated pyridoxal 5' phosphate hydrolysis expressed in Escherichia coli BL21 (DE3) cells assessed as enzyme Vmax at 1 mM preincubated for 4 mins followed by substrate addition measured after 2 mins
[14] = compound: Cc1ncc(CCP(=O)(O)O)c(CO)c1O; assay: as §4
[15] = compound: Cc1ncc(/C=C/P(=O)(O)O)c(CO)c1O; assay: as §4
[16] = compound: Cc1ncc(CCP(=O)(O)O)c(C=O)c1O; assay: as §4
[17] = compound: Cc1ncc(/C=C/P(=O)(O)O)c(C=O)c1O; assay: (§5) Inhibition of recombinant mouse brain PDXP-mediated pyridoxal 5' phosphate hydrolysis expressed in Escherichia coli BL21 (DE3) cells assessed as enzyme Kcat at 0.5 mM preincubated for 4 mins followed by substrate addition measured after 2 mins
[18] = compound: Cc1ncc(CCP(=O)(O)O)c(CO)c1O; assay: as §5
[19] = compound: Cc1ncc(/C=C/P(=O)(O)O)c(CO)c1O; assay: as §5
[20] = compound: Cc1ncc(CCP(=O)(O)O)c(C=O)c1O; assay: as §5
[21] = compound: Cc1ncc(/C=C/P(=O)(O)O)c(C=O)c1O; assay: (§6) Inhibition of recombinant mouse brain PDXP-mediated pyridoxal 5' phosphate hydrolysis expressed in Escherichia coli BL21 (DE3) cells assessed as enzyme Km at 2 mM preincubated for 4 mins followed by substrate addition measured after 2 mins
[22] = compound: Cc1ncc(CCP(=O)(O)O)c(CO)c1O; assay: as §6
[23] = compound: Cc1ncc(/C=C/P(=O)(O)O)c(CO)c1O; assay: as §6
[24] = compound: Cc1ncc(CCP(=O)(O)O)c(C=O)c1O; assay: as §6
[25] = compound: Cc1ncc(/C=C/P(=O)(O)O)c(C=O)c1O; assay: (§7) Inhibition of recombinant mouse brain PDXP-mediated pyridoxal 5' phosphate hydrolysis expressed in Escherichia coli BL21 (DE3) cells assessed as enzyme Kcat at 0.1 mM preincubated for 4 mins followed by substrate addition measured after 2 mins
[26] = compound: Cc1ncc(CCP(=O)(O)O)c(CO)c1O; assay: as §7
[27] = compound: Cc1ncc(/C=C/P(=O)(O)O)c(CO)c1O; assay: as §7
[28] = compound: Cc1ncc(CCP(=O)(O)O)c(C=O)c1O; assay: as §7
[29] = compound: Cc1ncc(/C=C/P(=O)(O)O)c(C=O)c1O; assay: (§8) Inhibition of recombinant mouse brain PDXP-mediated pyridoxal 5' phosphate hydrolysis expressed in Escherichia coli BL21 (DE3) cells assessed as ratio of enzyme Kcat/Km at 0.1 mM preincubated for 4 mins followed by substrate addition measured after 2 mins
[30] = compound: Cc1ncc(CCP(=O)(O)O)c(CO)c1O; assay: as §8
[31] = compound: Cc1ncc(/C=C/P(=O)(O)O)c(CO)c1O; assay: as §8
[32] = compound: Cc1ncc(CCP(=O)(O)O)c(C=O)c1O; assay: as §8
[33] = compound: Cc1ncc(/C=C/P(=O)(O)O)c(C=O)c1O; assay: (§9) Inhibition of recombinant mouse brain PDXP-mediated pyridoxal 5' phosphate hydrolysis expressed in Escherichia coli BL21 (DE3) cells assessed as ratio of enzyme Kcat/Km at 1 mM preincubated for 4 mins followed by substrate addition measured after 2 mins
[34] = compound: Cc1ncc(CCP(=O)(O)O)c(CO)c1O; assay: as §9
[35] = compound: Cc1ncc(/C=C/P(=O)(O)O)c(CO)c1O; assay: as §9
[36] = compound: Cc1ncc(CCP(=O)(O)O)c(C=O)c1O; assay: as §9
[37] = compound: Cc1ncc(/C=C/P(=O)(O)O)c(C=O)c1O; assay: (§10) Inhibition of recombinant mouse brain PDXP-mediated pyridoxal 5' phosphate hydrolysis expressed in Escherichia coli BL21 (DE3) cells assessed as enzyme Kcat at 2 mM preincubated for 4 mins followed by substrate addition measured after 2 mins
[38] = compound: Cc1ncc(CCP(=O)(O)O)c(CO)c1O; assay: as §10
[39] = compound: Cc1ncc(/C=C/P(=O)(O)O)c(CO)c1O; assay: as §10
[40] = compound: Cc1ncc(CCP(=O)(O)O)c(C=O)c1O; assay: as §10
[41] = compound: Cc1ncc(/C=C/P(=O)(O)O)c(C=O)c1O; assay: (§11) Inhibition of recombinant mouse brain PDXP-mediated pyridoxal 5' phosphate hydrolysis expressed in Escherichia coli BL21 (DE3) cells assessed as ratio of enzyme Kcat/Km at 2 mM preincubated for 4 mins followed by substrate addition measured after 2 mins
[42] = compound: Cc1ncc(CCP(=O)(O)O)c(CO)c1O; assay: as §11
[43] = compound: Cc1ncc(/C=C/P(=O)(O)O)c(CO)c1O; assay: as §11
[44] = compound: Cc1ncc(CCP(=O)(O)O)c(C=O)c1O; assay: as §11
[45] = compound: Cc1ncc(/C=C/P(=O)(O)O)c(C=O)c1O; assay: (§12) Inhibition of recombinant mouse brain PDXP-mediated pyridoxal 5' phosphate hydrolysis expressed in Escherichia coli BL21 (DE3) cells assessed as enzyme Vmax at 0.1 mM preincubated for 4 mins followed by substrate addition measured after 2 mins
[46] = compound: Cc1ncc(CCP(=O)(O)O)c(CO)c1O; assay: as §12
[47] = compound: Cc1ncc(/C=C/P(=O)(O)O)c(CO)c1O; assay: as §12
[48] = compound: Cc1ncc(CCP(=O)(O)O)c(C=O)c1O; assay: as §12
[49] = compound: Cc1ncc(/C=C/P(=O)(O)O)c(C=O)c1O; assay: (§13) Inhibition of recombinant mouse brain PDXP-mediated pyridoxal 5' phosphate hydrolysis expressed in Escherichia coli BL21 (DE3) cells assessed as enzyme Vmax at 0.5 mM preincubated for 4 mins followed by substrate addition measured after 2 mins
[50] = compound: Cc1ncc(CCP(=O)(O)O)c(CO)c1O; assay: as §13
[51] = compound: Cc1ncc(/C=C/P(=O)(O)O)c(CO)c1O; assay: as §13
[52] = compound: Cc1ncc(CCP(=O)(O)O)c(C=O)c1O; assay: as §13
[53] = compound: Cc1ncc(/C=C/P(=O)(O)O)c(C=O)c1O; assay: (§14) Inhibition of recombinant mouse brain PDXP-mediated pyridoxal 5' phosphate hydrolysis expressed in Escherichia coli BL21 (DE3) cells assessed as enzyme Km at 0.5 mM preincubated for 4 mins followed by substrate addition measured after 2 mins
[54] = compound: Cc1ncc(CCP(=O)(O)O)c(CO)c1O; assay: as §14
[55] = compound: Cc1ncc(/C=C/P(=O)(O)O)c(CO)c1O; assay: as §14
[56] = compound: Cc1ncc(CCP(=O)(O)O)c(C=O)c1O; assay: as §14
[57] = compound: Cc1ncc(/C=C/P(=O)(O)O)c(C=O)c1O; assay: (§15) Inhibition of recombinant mouse brain PDXP-mediated pyridoxal 5' phosphate hydrolysis expressed in Escherichia coli BL21 (DE3) cells assessed as enzyme Vmax at 2 mM preincubated for 4 mins followed by substrate addition measured after 2 mins
[58] = compound: Cc1ncc(CCP(=O)(O)O)c(CO)c1O; assay: as §15
[59] = compound: Cc1ncc(/C=C/P(=O)(O)O)c(CO)c1O; assay: as §15
[60] = compound: Cc1ncc(CCP(=O)(O)O)c(C=O)c1O; assay: as §15
[61] = compound: Cc1ncc(/C=C/P(=O)(O)O)c(C=O)c1O; assay: (§16) Inhibition of recombinant mouse brain PDXP-mediated pyridoxal 5' phosphate hydrolysis expressed in Escherichia coli BL21 (DE3) cells assessed as enzyme Km at 1 mM preincubated for 4 mins followed by substrate addition measured after 2 mins
[62] = compound: Cc1ncc(CCP(=O)(O)O)c(CO)c1O; assay: as §16
[63] = compound: Cc1ncc(/C=C/P(=O)(O)O)c(CO)c1O; assay: as §16
[64] = compound: Cc1ncc(CCP(=O)(O)O)c(C=O)c1O; assay: as §16

B1: Chronophin (Mus musculus), P60487 (protein)
chain: MARCERLRGAALRDVLGQAQGVLFDCDGVLWNGERIVPGAPELLQRLARAGKNTLFVSNNSRRARPELALRFARLGFAGLRAEQLFSSALCAARLLRQRLSGPPDASGAVFVLGGEGLRAELRAAGLRLAGDPGEDPRVRAVLVGYDEQFSFSRLTEACAHLRDPDCLLVATDRDPWHPLSDGSRTPGTGSLAAAVETASGRQALVVGKPSPYMFQCITEDFSVDPARTLMVGDRLETDILFGHRCGMTTVLTLTGVSSLEEAQAYLTAGQRDLVPHYYVESIADLMEGLED
Which Km [1] does the source give for B1 here?
The Km was 78 µM.

What about the Km [2] of the same protein?
The Km was 59 µM.

And the Km [3]?
The Km was 44 µM.

What about the Km [4] of the same protein?
Its Km is 72 µM.

What about the kcat/Km [5] of the same protein?
Its kcat/Km is 0.9 ×10⁴ /s/M.

What about the kcat/Km [6] of the same protein?
The kcat/Km was 2.4 ×10⁴ /s/M.

What about the kcat/Km [7] of the same protein?
The kcat/Km was 2.2 ×10⁴ /s/M.

And the kcat/Km [8]?
The kcat/Km was 1 ×10⁴ /s/M.

What about the kcat [9] of the same protein?
The kcat was 1.2 s⁻¹.

And the kcat [10]?
Its kcat is 1.8 s⁻¹.

What about the kcat [11] of the same protein?
The kcat was 1.7 s⁻¹.

What about the kcat [12] of the same protein?
The kcat was 1.4 s⁻¹.

And the Vmax [13]?
The Vmax was 2300 nmol/min/mg.

What about the Vmax [14] of the same protein?
The Vmax was 3440 nmol/min/mg.

What about the Vmax [15] of the same protein?
Its Vmax is 3150 nmol/min/mg.

What about the Vmax [16] of the same protein?
Its Vmax is 2620 nmol/min/mg.

What about the kcat [17] of the same protein?
The kcat was 1.6 s⁻¹.

And the kcat [18]?
Its kcat is 2 s⁻¹.

What about the kcat [19] of the same protein?
Its kcat is 1.7 s⁻¹.

And the kcat [20]?
Its kcat is 1.7 s⁻¹.

What about the Km [21] of the same protein?
The Km was 224 µM.

And the Km [22]?
Its Km is 136 µM.

And the Km [23]?
The Km was 181 µM.

What about the Km [24] of the same protein?
The Km was 246 µM.

And the kcat [25]?
Its kcat is 1.9 s⁻¹.

What about the kcat [26] of the same protein?
The kcat was 2 s⁻¹.

What about the kcat [27] of the same protein?
The kcat was 1.8 s⁻¹.

And the kcat [28]?
The kcat was 1.9 s⁻¹.

What about the kcat/Km [29] of the same protein?
Its kcat/Km is 2.4 ×10⁴ /s/M.

And the kcat/Km [30]?
Its kcat/Km is 3.3 ×10⁴ /s/M.

And the kcat/Km [31]?
The kcat/Km was 4 ×10⁴ /s/M.

What about the kcat/Km [32] of the same protein?
Its kcat/Km is 2.7 ×10⁴ /s/M.

And the kcat/Km [33]?
The kcat/Km was 0.5 ×10⁴ /s/M.

What about the kcat/Km [34] of the same protein?
The kcat/Km was 1.9 ×10⁴ /s/M.

What about the kcat/Km [35] of the same protein?
The kcat/Km was 1.5 ×10⁴ /s/M.

What about the kcat/Km [36] of the same protein?
Its kcat/Km is 0.7 ×10⁴ /s/M.

And the kcat [37]?
Its kcat is 0.9 s⁻¹.

And the kcat [38]?
Its kcat is 1.7 s⁻¹.

And the kcat [39]?
The kcat was 1.6 s⁻¹.

What about the kcat [40] of the same protein?
The kcat was 1.1 s⁻¹.

And the kcat/Km [41]?
The kcat/Km was 0.4 ×10⁴ /s/M.

What about the kcat/Km [42] of the same protein?
The kcat/Km was 1.2 ×10⁴ /s/M.

And the kcat/Km [43]?
Its kcat/Km is 0.9 ×10⁴ /s/M.

And the kcat/Km [44]?
Its kcat/Km is 0.5 ×10⁴ /s/M.

And the Vmax [45]?
The Vmax was 3580 nmol/min/mg.

What about the Vmax [46] of the same protein?
The Vmax was 3740 nmol/min/mg.

What about the Vmax [47] of the same protein?
Its Vmax is 3300 nmol/min/mg.

And the Vmax [48]?
The Vmax was 3590 nmol/min/mg.

And the Vmax [49]?
The Vmax was 2990 nmol/min/mg.

What about the Vmax [50] of the same protein?
Its Vmax is 3680 nmol/min/mg.

And the Vmax [51]?
The Vmax was 3230 nmol/min/mg.

And the Vmax [52]?
The Vmax was 3280 nmol/min/mg.

And the Km [53]?
Its Km is 170 µM.

And the Km [54]?
The Km was 83 µM.

And the Km [55]?
The Km was 77 µM.

What about the Km [56] of the same protein?
The Km was 170 µM.

And the Vmax [57]?
The Vmax was 1640 nmol/min/mg.

What about the Vmax [58] of the same protein?
The Vmax was 3150 nmol/min/mg.

And the Vmax [59]?
Its Vmax is 3070 nmol/min/mg.

What about the Vmax [60] of the same protein?
Its Vmax is 2130 nmol/min/mg.

What about the Km [61] of the same protein?
The Km was 248 µM.

What about the Km [62] of the same protein?
Its Km is 98 µM.

And the Km [63]?
The Km was 112 µM.

And the Km [64]?
Its Km is 197 µM.
